Assay results from article PMC6021487.

Biological target: IL-33 (UniProt O95760)
Test: co-immunoprecipitation with anti-HA, immunoblot
Details: reference: wild type PTRF; sites Y158

polymerase I and transcript release factor (PTRF, Cavin-1) (from UniProt O54724) PTRF Y158F
binding against the reference: stronger
